In the experiment the target is Linear di-ubiquitin (UniProt P0CG48 1-76; P0CG48 1-76). Description: crystal structure.

Consider QRSSAETSELREALLKIFPDSEQKLKIDQILAAHPYMKDLNALSALVLD (domain or fragment, UniProt Q6A037 845-893, looked up) [N4BP1 CUE-like domain (Q845-D893)], for which the binding result is “binds”.

The values above are taken from PMC11096006 (Immunity, 2024).
